Experimental data taken from IntAct's records for PubMed 31515488.

B1: Adenosylhomocysteinase (Homo sapiens), P23526 (parent)
chain: MSDKLPYKVADIGLAAWGRKALDIAENEMPGLMRMRERYSASKPLKGARIAGCLHMTVETAVLIETLVTLGAEVQWSSCNIFSTQDHAAAAIAKAGIPVYAWKGETDEEYLWCIEQTLYFKDGPLNMILDDGGDLTNLIHTKYPQLLPGIRGISEETTTGVHNLYKMMANGILKVPAINVNDSVTKSKFDNLYGCRESLIDGIKRATDVMIAGKVAVVAGYGDVGKGCAQALRGFGARVIITEIDPINALQAAMEGYEVTTMDEACQEGNIFVTTTGCIDIILGRHFEQMKDDAIVCNIGHFDVEIDVKWLNENAVEKVNIKPQVDRYRLKNGRRIILLAEGRLVNLGCAMGHPSFVMSNSFTNQVMAQIELWTHPDKYPVGVHFLPKKLDEAVAEAHLGKLNVKLTKLTEKQAQYLGMSCDGPFKPDHYRY
partner: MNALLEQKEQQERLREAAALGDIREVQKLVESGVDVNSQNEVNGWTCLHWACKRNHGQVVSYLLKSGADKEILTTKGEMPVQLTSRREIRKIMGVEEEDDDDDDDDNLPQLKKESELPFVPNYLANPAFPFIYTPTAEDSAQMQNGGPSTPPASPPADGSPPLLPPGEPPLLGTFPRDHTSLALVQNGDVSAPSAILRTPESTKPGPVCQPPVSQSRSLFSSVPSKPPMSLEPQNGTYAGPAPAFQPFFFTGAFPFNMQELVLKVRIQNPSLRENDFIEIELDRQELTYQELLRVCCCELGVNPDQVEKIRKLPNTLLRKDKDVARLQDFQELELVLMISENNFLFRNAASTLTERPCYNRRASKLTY
B2: Kelch-like protein 40 (Homo sapiens), Q2TBA0 (parent)
chain: MALGLEQAEEQRLYQQTLLQDGLKDMLDHGKFLDCVVRAGEREFPCHRLVLAACSPYFRARFLAEPERAGELHLEEVSPDVVAQVLHYLYTSEIALDEASVQDLFAAAHRFQIPSIFTICVSFLQKRLCLSNCLAVFRLGLLLDCARLAVAARDFICAHFTLVARDADFLGLSADELIAIISSDGLNVEKEEAVFEAVMRWAGSGDAEAQAERQRALPTVFESVRCRLLPRAFLESRVERHPLVRAQPELLRKVQMVKDAHEGRITTLRKKKKGKDGAGAKEADKGTSKAKAEEDEEAERILPGILNDTLRFGMFLQDLIFMISEEGAVAYDPAANECYCASLSNQVPKNHVSLVTKENQVFVAGGLFYNEDNKEDPMSAYFLQFDHLDSEWLGMPPLPSPRCLFGLGEALNSIYVVGGREIKDGERCLDSVMCYDRLSFKWGESDPLPYVVYGHTVLSHMDLVYVIGGKGSDRKCLNKMCVYDPKKFEWKELAPMQTARSLFGATVHDGRIIVAAGVTDTGLTSSAEVYSITDNKWAPFEAFPQERSSLSLVSLVGTLYAIGGFATLETESGELVPTELNDIWRYNEEEKKWEGVLREIAYAAGATFLPVRLNVLCLTKM
B3: Nucleoside diphosphate kinase homolog 5 (Homo sapiens), P56597 (parent)
chain: MEISMPPPQIYVEKTLAIIKPDIVDKEEEIQDIILRSGFTIVQRRKLRLSPEQCSNFYVEKYGKMFFPNLTAYMSSGPLVAMILARHKAISYWLELLGPNNSLVAKETHPDSLRAIYGTDDLRNALHGSNDFAAAEREIRFMFPEVIVEPIPIGQAAKDYLNLHIMPTLLEGLTELCKQKPADPLIWLADWLLKNNPNKPKLCHHPIVEEPY
partner: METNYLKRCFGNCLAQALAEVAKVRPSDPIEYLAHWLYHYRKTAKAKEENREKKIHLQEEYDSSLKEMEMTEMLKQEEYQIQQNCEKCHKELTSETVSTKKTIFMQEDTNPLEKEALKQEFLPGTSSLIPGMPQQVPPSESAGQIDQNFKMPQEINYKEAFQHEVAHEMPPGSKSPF
B4: Protein SSX5 (Homo sapiens), O60225 (parent)
chain: MNGDDAFVRRPRVGSQIPEKMQKAFDDIAKYFSEKEWEKMKASEKIIYVYMKRKYEAMTKLGFKATLPPFMRNKRVADFQGNDFDNDPNRGNQVEHPQMTFGRLQGIFPKITPEKPAEEGNDSKGVPEASGPQNNGKQLRPSGKLNTSEKVNKTSGPKRGKHAWTHRVRERKQLVIYEEISDPQEDDE
B5: Protein BANP (Homo sapiens), Q8N9N5 (parent)
chain: MMSEHDLADVVQIAVEDLSPDHPVVLENHVVTDEDEPALKRQRLEINCQDPSIKTICLRLDSIEAKLQALEATCKSLEEKLDLVTNKQHSPIQVPMVAGSPLGATQTCNKVRCVVPQTTVILNNDRQNAIVAKMEDPLSNRAPDSLENVISNAVPGRRQNTIVVKVPGQEDSHHEDGESGSEASDSVSSCGQAGSQSIGSNVTLITLNSEEDYPNGTWLGDENNPEMRVRCAIIPSDMLHISTNCRTAEKMALTLLDYLFHREVQAVSNLSGQGKHGKKQLDPLTIYGIRCHLFYKFGITESDWYRIKQSIDSKCRTAWRRKQRGQSLAVKSFSRRTPNSSSYCPSEPMMSTPPPASELPQPQPQPQALHYALANAQQVQIHQIGEDGQVQVGHLHIAQVPQGEQVQITQDSEGNLQIHHVGQDGQLLEATRIPCLLAPSVFKASSGQVLQGAQLIAVASSDPAAAGVDGSPLQGSDIQVQYVQLAPVSDHTAGAQTAEALQPTLQPEMQLEHGAIQIQ
partner: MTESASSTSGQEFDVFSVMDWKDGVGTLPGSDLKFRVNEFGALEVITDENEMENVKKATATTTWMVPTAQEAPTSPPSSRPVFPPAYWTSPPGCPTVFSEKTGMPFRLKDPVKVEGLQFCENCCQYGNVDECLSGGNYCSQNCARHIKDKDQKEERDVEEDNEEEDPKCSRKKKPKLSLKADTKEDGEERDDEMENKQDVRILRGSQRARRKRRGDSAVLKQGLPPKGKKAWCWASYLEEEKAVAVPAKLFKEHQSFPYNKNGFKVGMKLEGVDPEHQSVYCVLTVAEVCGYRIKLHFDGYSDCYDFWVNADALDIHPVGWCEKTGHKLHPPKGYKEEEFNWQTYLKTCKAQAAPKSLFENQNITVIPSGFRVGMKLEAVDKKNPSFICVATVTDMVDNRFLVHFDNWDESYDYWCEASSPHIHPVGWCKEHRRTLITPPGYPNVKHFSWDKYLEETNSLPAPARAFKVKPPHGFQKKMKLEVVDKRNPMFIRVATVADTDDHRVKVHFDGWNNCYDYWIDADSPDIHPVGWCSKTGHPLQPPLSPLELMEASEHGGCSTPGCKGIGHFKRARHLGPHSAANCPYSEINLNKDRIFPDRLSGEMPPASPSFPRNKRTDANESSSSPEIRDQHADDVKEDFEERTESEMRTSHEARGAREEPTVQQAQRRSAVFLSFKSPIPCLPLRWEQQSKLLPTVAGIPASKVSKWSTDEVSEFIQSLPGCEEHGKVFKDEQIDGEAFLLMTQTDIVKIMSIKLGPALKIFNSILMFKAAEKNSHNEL
B6: Zinc finger protein RFP (Homo sapiens), P14373 (parent)
chain: MASGSVAECLQQETTCPVCLQYFAEPMMLDCGHNICCACLARCWGTAETNVSCPQCRETFPQRHMRPNRHLANVTQLVKQLRTERPSGPGGEMGVCEKHREPLKLYCEEDQMPICVVCDRSREHRGHSVLPLEEAVEGFKEQIQNQLDHLKRVKDLKKRRRAQGEQARAELLSLTQMEREKIVWEFEQLYHSLKEHEYRLLARLEELDLAIYNSINGAITQFSCNISHLSSLIAQLEEKQQQPTRELLQDIGDTLSRAERIRIPEPWITPPDLQEKIHIFAQKCLFLTESLKQFTEKMQSDMEKIQELREAQLYSVDVTLDPDTAYPSLILSDNLRQVRYSYLQQDLPDNPERFNLFPCVLGSPCFIAGRHYWEVEVGDKAKWTIGVCEDSVCRKGGVTSAPQNGFWAVSLWYGKEYWALTSPMTALPLRTPLQRVGIFLDYDAGEVSFYNVTERCHTFTFSHATFCGPVRPYFSLSYSGGKSAAPLIICPMSGIDGFSGHVGNHGHSMETSP
partner: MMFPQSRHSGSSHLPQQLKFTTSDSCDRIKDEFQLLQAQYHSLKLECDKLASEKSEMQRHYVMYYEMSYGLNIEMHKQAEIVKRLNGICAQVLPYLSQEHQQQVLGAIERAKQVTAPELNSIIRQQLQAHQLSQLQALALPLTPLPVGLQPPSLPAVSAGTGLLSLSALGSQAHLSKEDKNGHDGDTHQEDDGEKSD
B7: Microtubule-associated tumor suppressor candidate 2 (Homo sapiens), Q5JR59-3 (parent)
chain: MGHCCCKPYNCLQCLDKTNESALVKEKELSIELANIRDEVAFHTAKCEKLQKEKEELERRFEDEVKRLGWQQQAELQELEERLQLQFEAEMARLQEEHGDQLLSIRCQHQEQVEDLTASHDAALLEMENNHTVAITILQDDHDHKVQELMSTHELEKKELEENFEKLRLSLQDQVDTLTFQSQSLRDRARRFEEALRKNTEEQLEIALAPYQHLEEDMKSLKQVLEMKNQQIHEQEKKILELEKLAEKNIILEEKIQVLQQQNEDLKARIDQNTVVTRQLSEENANLQEYVEKETQEKKRLSRTNEELLWKLQTGDPTSPIKLSPTSPVYRGSSSGPSSPARVSTTPR
partner: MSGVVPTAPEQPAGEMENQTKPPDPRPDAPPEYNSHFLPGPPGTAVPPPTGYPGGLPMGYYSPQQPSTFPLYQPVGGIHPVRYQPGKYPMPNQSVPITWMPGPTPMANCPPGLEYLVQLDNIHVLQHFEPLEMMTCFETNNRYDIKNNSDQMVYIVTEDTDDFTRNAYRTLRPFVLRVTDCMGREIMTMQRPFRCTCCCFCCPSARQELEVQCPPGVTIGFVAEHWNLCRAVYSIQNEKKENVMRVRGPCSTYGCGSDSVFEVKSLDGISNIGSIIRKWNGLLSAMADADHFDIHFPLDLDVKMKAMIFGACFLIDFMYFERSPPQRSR
B8: Break repair meiotic recombinase recruitment factor 1 (Homo sapiens), Q0VDD7 (parent)
chain: MTKRKKLRTSGEGLCPPKPLKNPRLGDFYGDPQSSMLGCLHHPEEPEGKLGPVPSTQQHGEEPGKAVSSSPDEETGSPCRLLRQPEKEPAPLPPSQNSFGRFVPQFAKSRKTVTRKEEMKDEDRGSGAFSLETIAESSAQSPGCQLLVETLGVPLQEATELGDPTQADSARPEQSSQSPVQAVPGSGDSQPDDPPDRGTGLSASQRASQDHLSEQGADDSKPETDRVPGDGGQKEHLPSIDSEGEKPDRGAPQEGGAQRTAGAGLPGGPQEEGDGVPCTPASAPTSGPAPGLGPASWCLEPGSVAQGSPDPQQTPSRMGREGEGTHSSLGCSSLGMVVIADLSTDPTELEERALEVAGPDGQASAISPASPRRKAADGGHRRALPGCTSLTGETTGESGEAGQDGKPPGDVLVGPTASLALAPGSGESMMGAGDSGHASPDTGPCVNQKQEPGPAQEEAELGGQNLERDLEGFRVSPQASVVLEHREIADDPLQEPGAQQGIPDTTSELAGQRDHLPHSADQGTWADSLAVELDFLLDSQIQDALDASDFEAPPEQLFPSGNKPGPCWPGPSSHANGDPVAVAKAQPRTFVGIQASEASRMEDATNVVRGLIVELSNLNRLIMGTHRDLEAFKRLNYRKTKLGGKAPLPYPSKGPGNIPRGDPPWREL
partner: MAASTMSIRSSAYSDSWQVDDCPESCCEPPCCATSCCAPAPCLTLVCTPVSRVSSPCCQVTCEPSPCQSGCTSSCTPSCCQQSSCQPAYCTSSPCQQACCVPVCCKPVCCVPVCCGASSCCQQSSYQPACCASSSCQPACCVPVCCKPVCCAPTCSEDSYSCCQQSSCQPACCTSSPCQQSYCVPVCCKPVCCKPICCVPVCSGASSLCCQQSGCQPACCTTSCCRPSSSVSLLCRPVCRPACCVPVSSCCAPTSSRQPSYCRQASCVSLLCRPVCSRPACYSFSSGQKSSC

Variants of: B1
Details: with anr40_human ANKRD40, Q6AI12

| Variant | effect of a mutation on the interaction |
| --- | --- |
| I92V | with no effect |

Variants of: B2
Details: with smip4_human SPMIP4, Q8N865
Sequence of smip4_human SPMIP4, Q8N865 (Q8N865 whole entry): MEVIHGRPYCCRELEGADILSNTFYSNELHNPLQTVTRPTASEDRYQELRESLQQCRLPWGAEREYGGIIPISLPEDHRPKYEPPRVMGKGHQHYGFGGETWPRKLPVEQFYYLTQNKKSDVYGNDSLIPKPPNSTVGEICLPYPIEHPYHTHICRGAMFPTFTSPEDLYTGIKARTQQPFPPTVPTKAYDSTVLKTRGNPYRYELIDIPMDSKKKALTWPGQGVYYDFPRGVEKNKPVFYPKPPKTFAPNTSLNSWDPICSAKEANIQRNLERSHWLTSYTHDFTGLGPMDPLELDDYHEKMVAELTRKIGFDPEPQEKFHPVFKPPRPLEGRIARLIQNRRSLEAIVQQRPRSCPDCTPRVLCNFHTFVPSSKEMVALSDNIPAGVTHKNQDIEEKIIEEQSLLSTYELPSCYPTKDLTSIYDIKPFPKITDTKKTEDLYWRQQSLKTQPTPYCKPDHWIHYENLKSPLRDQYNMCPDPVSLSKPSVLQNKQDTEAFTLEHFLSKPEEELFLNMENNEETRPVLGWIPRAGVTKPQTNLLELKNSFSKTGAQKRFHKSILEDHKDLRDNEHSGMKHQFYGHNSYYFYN

| Variant | effect of a mutation on the interaction |
| --- | --- |
| D484N | with no effect |

Variants of: B3
Details: with dydc2_human DYDC2, Q96IM9

| Variant | effect of a mutation on the interaction |
| --- | --- |
| I165M | with no effect |
| N198D | with no effect |
| S50N | with no effect |
| L103F | with no effect |

Variants of: B4
Details: with atrap_human AGTRAP

| Variant | effect of a mutation on the interaction |
| --- | --- |
| K20N | with no effect |

Variants of: B5
Details: with lmbl3_human L3MBTL3, Q96JM7

| Variant | effect of a mutation on the interaction |
| --- | --- |
| P348S | with no effect |

Variants of: B6
Details: with tle5_human TLE5, Q08117

| Variant | effect of a mutation on the interaction |
| --- | --- |
| N355S | with no effect |

Variants of: B7
Details: with pls4_human PLSCR4, Q9NRQ2

| Variant | effect of a mutation on the interaction |
| --- | --- |
| A89V | with no effect |

Variants of: B8
Details: with kr109_human KRTAP10-9, P60411

| Variant | effect of a mutation on the interaction |
| --- | --- |
| L155F | with no effect |
| G267R | with no effect |
| N576S | with no effect |
